Experimental data: PMC7442955, “Biochemical and functional characterization of a meiosis-specific Pch2/ORC AAA+ assembly” (Life Science Alliance, 2020)

B2: His–MBP–Pch2 (natural protein, budding yeast, UniProt P38126 1-564, looked up)
chain: MSYIVDLQVRGSSLRVIKCMFREDEQISSLHSGSDSKQNSNKKLGEFLNLLKAVVKRKLESFPKDRLKTSIITGQELMREGQGSIEIKDPPTEAQQHLIRSLAKVLLHQFSSINGKVNTVNEGQDNLFLSLFVKKISIEQQSTSHVSIKLNFHEKINLGQHIDSILDSEETNESDTYHMGSVDEFIIYPFCCLEEQDELKNGSILSTEFDKIDLELDEDDGFEGETLNNCINSVGNFDIPLSKQTLNLVNISYLPGTTFEGQWESLYFGNNIKERLYSYATISLKIARFKQTGDSNQEDITTLITNNKLLLVHGPPGTGKTTLCKALCQKLSVRREFSDGSDTIDTNYKGIIIELSCARIFSKWFGESSKNISIVFKDIEELLKVNEGRGIFICLLIDEVEAIASSRTNLSSRNESTDGIRVVNTLLTQLDRLKKYHNFLALATSNLLDSLDDAFVDRADGVFYVGNPTAEGILHILKVCIEEMITSGIILFHARSTGVKFFNKYQDILRKIAIKCSTVDISGRTIRKLPLMCLSEYFRTFPVDDDEFVLALAMSARKLSAARK
notes: Pch2, budding yeast; from codon-optimized cDNA in a pLIB–His–MBP vector; Apparent hexamer by SEC, with a minor fraction that appears monomeric; also called purified Pch2; full-length Pch2; source: Tnao38 insect cells (baculovirus), purified (TALON, amylose, SEC); not shown: His, N-terminal, kept; MBP, N-terminal, kept

Columns and labels:
[1] = target: T1, His–ORC (His–Orc1, Orc2-6) purified from insect cells (budding yeast, UniProt P54784 1-914; P32833 1-620; P54790 1-616; P54791 1-529; P50874 1-479; P38826 …, a fraction of Orc6 phosphorylated (double band, collapsed by λ-phosphatase); sites not stated); test: pull-down; His–MBP–Pch2 (1 μM as hexamer) or fragments (6 μM of 2-144) on amylose beads, 1 μM ORC added, 90 min on ice; 30 mM HEPES pH 7.5, 150 mM NaCl, 10 mM imidazole, 0.1% Tween-20, 10 mM MgCl2; Coomassie staining or Western blot (α-MBP, α-ORC); conditions: both partners purified
T1 construct: Orc1, budding yeast; Orc2, budding yeast; Orc3, budding yeast; Orc4, budding yeast; Orc5, budding yeast; Orc6, budding yeast; Total size about 414 kD as printed; also called His–Orc1-6; origin recognition complex; source: Tnao38 insect cells coinfected with two baculoviruses, purified (His-tag resin, SEC); copies: + + + + +

[2] = target: T2, His–Orc1 (subunit of the insect cell–purified ORC) (budding yeast, UniProt P54784 1-914); test: cross-linking; XL-MS: 0.75 μM His–MBP–Pch2 with 1.5 μM His–ORC, 30 mM HEPES pH 7.5, 150 mM NaCl, 2 mM TCEP, 90 min at 4°C; 3 mM DSBU, 25°C, 1 h; MeroX, 2% FDR; conditions: both partners purified
T2 construct: Orc1, budding yeast; Stood in the assays as a subunit of m16; source: Tnao38 insect cells, co-expressed with Orc2-6, purified as part of His–ORC
T2 sequence (looked up): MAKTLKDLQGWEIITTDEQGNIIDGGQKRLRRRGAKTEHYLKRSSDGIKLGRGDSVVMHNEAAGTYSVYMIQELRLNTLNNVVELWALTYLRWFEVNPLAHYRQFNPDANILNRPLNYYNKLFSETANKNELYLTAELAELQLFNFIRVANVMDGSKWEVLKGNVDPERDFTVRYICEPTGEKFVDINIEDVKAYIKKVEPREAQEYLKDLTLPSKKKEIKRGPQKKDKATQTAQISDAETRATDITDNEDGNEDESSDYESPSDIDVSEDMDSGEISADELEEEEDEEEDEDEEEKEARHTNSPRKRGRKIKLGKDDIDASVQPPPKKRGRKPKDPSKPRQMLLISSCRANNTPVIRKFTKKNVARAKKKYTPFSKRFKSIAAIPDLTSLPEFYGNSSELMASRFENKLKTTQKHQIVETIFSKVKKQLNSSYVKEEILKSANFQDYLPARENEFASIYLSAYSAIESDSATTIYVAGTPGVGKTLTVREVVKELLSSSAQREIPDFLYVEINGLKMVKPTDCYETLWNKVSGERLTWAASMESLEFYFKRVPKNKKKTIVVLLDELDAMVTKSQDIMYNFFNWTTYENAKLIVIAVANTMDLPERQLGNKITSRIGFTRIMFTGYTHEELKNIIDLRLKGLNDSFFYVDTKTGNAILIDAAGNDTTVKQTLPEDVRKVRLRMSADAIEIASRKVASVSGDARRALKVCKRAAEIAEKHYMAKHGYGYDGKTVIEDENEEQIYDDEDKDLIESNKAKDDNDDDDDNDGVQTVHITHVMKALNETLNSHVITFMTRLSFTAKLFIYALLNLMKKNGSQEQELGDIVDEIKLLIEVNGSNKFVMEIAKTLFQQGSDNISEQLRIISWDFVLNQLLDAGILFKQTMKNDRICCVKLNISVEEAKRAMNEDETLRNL

[3] = target: the molecule itself; test: SEC; single purified proteins: His–MBP–Pch2 (2 μM), His–MBP–Pch2-243-564 (2 μM), His–MBP–Pch2-2-144 (6 μM; Superdex 200 5/150 GL); 30 mM HEPES pH 7.5, 150 mM NaCl, 3% glycerol, 2 mM TCEP, 1 mM MgCl2
[4] = target: T3, ORC (Orc1-6, with Orc1 carrying a CBP tag) purified from budding yeast (budding yeast, UniProt P54784 1-914; P32833 1-620; P54790 1-616; P54791 1-529; P50874 1-479; P38826 …); test: pull-down; ORC from budding yeast bound to calmodulin beads, His–MBP–Pch2 added for 1 h on ice; 30 mM HEPES pH 7.5, 200 mM NaCl, 2 mM CaCl2; with or without MgCl2 and ADP, ATP or ATP analogs; Coomassie staining; conditions: both partners purified
T3 construct: Orc1, budding yeast; Orc2, budding yeast; Orc3, budding yeast; Orc4, budding yeast; Orc5, budding yeast; Orc6, budding yeast; also called budding yeast ORC (CBP–Orc1); budding yeast–purified ORC; source: purified from α-factor–arrested vegetative budding yeast cells (yGV3358), concentrated on calmodulin beads; copies: + + + + +

6xHis–Hop1 = target: T4, 6xHis–Hop1 (budding yeast, UniProt P20050 1-605); test: pull-down; His–MBP–Pch2 (1 μM, as hexamer) on amylose beads, 6 μM Hop1 added, 90 min on ice; 50 mM Tris pH 7.5, 50 mM NaCl, 10 mM imidazole, 0.1% Tween-20, 1 mM MgCl2; with or without 200 μM ATP or ATPγS; Coomassie staining; conditions: both partners purified
T4 construct: Hop1, HORMA domain protein, substrate of Pch2; source: E. coli BL21 RIPL, purified (TALON, heparin, SEC); not shown: 6xHis, N-terminal, kept
T4 sequence (looked up): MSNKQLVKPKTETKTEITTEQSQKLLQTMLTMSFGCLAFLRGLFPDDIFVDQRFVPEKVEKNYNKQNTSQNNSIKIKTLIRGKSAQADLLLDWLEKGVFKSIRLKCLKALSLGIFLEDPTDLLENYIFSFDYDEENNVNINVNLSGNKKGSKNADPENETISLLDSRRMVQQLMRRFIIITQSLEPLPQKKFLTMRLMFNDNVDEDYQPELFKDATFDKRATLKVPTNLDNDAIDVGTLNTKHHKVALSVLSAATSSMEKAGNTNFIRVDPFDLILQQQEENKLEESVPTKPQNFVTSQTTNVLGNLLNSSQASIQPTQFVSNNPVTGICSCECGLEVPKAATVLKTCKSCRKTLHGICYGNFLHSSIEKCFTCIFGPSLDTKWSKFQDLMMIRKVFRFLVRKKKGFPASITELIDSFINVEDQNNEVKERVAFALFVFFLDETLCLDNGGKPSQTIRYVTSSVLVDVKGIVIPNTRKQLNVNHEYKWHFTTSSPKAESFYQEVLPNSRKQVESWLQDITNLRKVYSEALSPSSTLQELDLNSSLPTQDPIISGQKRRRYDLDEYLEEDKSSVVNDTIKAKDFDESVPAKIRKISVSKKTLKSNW

[5] = target: T5, dephosphorylated His–ORC (λ-phosphatase treated) (budding yeast, UniProt P54784 1-914; P32833 1-620; P54790 1-616; P54791 1-529; P50874 1-479; P38826 …); test: pull-down; His–MBP–Pch2 (1 μM as hexamer) or fragments (6 μM of 2-144) on amylose beads, 1 μM ORC added, 90 min on ice; 30 mM HEPES pH 7.5, 150 mM NaCl, 10 mM imidazole, 0.1% Tween-20, 10 mM MgCl2; Coomassie staining or Western blot (α-MBP, α-ORC); conditions: both partners purified
T5 construct: Orc1, budding yeast; as in m16; Orc2, budding yeast; Orc3, budding yeast; Orc4, budding yeast; Orc5, budding yeast; Orc6, budding yeast; as in m16, dephosphorylated (single band); also called dephosphorylated ORC; source: Tnao38 insect cells, purified, then treated with λ-phosphatase at 4°C overnight; copies: + + + + +

His–MBP–Pch2 = target: B2; test: cross-linking; XL-MS: 0.75 μM His–MBP–Pch2 with 1.5 μM His–ORC, 30 mM HEPES pH 7.5, 150 mM NaCl, 2 mM TCEP, 90 min at 4°C; 3 mM DSBU, 25°C, 1 h; MeroX, 2% FDR; conditions: both partners purified

T1 sequence (P32833 whole entry, chain 2 of 4, the tested form may be a part): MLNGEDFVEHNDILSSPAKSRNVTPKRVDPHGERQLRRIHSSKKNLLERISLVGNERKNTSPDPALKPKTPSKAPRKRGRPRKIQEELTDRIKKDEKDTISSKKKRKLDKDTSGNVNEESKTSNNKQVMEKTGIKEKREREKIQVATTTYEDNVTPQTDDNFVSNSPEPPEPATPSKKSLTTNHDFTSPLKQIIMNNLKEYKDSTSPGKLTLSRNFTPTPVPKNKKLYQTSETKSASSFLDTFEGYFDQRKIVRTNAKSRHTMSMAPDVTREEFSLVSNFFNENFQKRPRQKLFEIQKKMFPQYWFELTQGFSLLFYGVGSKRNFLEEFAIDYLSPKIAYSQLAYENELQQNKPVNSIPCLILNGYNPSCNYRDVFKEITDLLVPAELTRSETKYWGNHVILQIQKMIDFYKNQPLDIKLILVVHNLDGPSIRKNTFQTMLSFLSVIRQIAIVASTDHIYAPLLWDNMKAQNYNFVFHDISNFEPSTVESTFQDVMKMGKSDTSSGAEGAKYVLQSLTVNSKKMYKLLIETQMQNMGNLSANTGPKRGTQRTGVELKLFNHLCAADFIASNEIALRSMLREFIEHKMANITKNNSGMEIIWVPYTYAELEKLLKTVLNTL
T1 sequence (P54790 whole entry, chain 3 of 4, the tested form may be a part): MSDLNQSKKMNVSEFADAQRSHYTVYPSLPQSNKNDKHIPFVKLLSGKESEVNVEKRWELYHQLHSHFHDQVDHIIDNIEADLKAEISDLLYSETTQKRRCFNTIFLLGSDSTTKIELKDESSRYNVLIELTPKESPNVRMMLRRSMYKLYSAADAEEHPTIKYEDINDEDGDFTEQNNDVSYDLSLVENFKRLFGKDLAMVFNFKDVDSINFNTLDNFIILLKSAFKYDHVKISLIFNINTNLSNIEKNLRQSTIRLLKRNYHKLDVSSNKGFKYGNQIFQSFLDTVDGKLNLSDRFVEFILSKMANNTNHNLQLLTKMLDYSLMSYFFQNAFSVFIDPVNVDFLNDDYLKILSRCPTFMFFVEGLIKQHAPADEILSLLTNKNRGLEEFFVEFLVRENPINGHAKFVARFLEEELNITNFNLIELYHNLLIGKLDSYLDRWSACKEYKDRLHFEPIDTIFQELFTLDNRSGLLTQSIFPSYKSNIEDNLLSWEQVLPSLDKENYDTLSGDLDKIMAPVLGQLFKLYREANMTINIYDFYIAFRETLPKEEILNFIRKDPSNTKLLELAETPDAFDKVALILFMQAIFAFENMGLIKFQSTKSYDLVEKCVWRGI
T1 sequence (P54791 whole entry, chain 4 of 4, the tested form may be a part): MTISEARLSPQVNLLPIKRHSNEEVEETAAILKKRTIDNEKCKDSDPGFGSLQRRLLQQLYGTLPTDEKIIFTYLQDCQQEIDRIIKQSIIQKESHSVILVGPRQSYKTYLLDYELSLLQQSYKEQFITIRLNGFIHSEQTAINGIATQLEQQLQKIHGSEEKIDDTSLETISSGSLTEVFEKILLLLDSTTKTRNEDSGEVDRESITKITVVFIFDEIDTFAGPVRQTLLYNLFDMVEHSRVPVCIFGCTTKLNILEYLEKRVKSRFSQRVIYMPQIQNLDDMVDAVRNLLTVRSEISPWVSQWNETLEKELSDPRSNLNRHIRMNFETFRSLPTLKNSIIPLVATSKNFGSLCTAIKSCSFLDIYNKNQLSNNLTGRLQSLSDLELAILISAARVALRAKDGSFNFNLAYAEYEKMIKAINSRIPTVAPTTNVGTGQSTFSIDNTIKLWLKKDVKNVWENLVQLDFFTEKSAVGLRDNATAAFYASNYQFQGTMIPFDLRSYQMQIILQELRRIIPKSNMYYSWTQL
T1 sequence (P38826 whole entry, chain 6 of 4, the tested form may be a part): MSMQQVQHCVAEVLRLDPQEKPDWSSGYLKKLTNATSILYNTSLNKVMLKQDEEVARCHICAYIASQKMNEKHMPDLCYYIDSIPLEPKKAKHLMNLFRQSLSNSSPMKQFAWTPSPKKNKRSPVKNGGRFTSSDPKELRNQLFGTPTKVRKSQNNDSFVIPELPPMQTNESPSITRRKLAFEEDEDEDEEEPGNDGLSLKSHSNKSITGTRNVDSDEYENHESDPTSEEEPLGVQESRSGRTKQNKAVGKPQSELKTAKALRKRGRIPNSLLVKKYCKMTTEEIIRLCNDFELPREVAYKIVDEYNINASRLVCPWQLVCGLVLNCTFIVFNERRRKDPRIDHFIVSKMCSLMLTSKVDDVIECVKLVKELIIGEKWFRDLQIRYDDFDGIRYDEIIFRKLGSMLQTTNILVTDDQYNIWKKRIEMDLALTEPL
T5 sequence (P32833 whole entry, chain 2 of 4, the tested form may be a part): as the sequence (P32833 whole entry, chain 2 of 4, the tested form may be a part) above
T5 sequence (P54790 whole entry, chain 3 of 4, the tested form may be a part): as the sequence (P54790 whole entry, chain 3 of 4, the tested form may be a part) above
T5 sequence (P54791 whole entry, chain 4 of 4, the tested form may be a part): as the sequence (P54791 whole entry, chain 4 of 4, the tested form may be a part) above
T5 sequence (P38826 whole entry, chain 6 of 4, the tested form may be a part): as the sequence (P38826 whole entry, chain 6 of 4, the tested form may be a part) above
T3 sequence (P32833 whole entry, chain 2 of 4): as the sequence (P32833 whole entry, chain 2 of 4, the tested form may be a part) above
T3 sequence (P54790 whole entry, chain 3 of 4): as the sequence (P54790 whole entry, chain 3 of 4, the tested form may be a part) above
T3 sequence (P54791 whole entry, chain 4 of 4): as the sequence (P54791 whole entry, chain 4 of 4, the tested form may be a part) above
T3 sequence (P38826 whole entry, chain 6 of 4): as the sequence (P38826 whole entry, chain 6 of 4, the tested form may be a part) above

B1: His–MBP–Pch2-2-144 (domain or fragment, budding yeast, UniProt P38126 2-144, looked up)
chain: SYIVDLQVRGSSLRVIKCMFREDEQISSLHSGSDSKQNSNKKLGEFLNLLKAVVKRKLESFPKDRLKTSIITGQELMREGQGSIEIKDPPTEAQQHLIRSLAKVLLHQFSSINGKVNTVNEGQDNLFLSLFVKKISIEQQSTS
notes: Pch2, budding yeast, part of the NH2-terminal domain; Monomer by SEC; also called minimal NH2-terminal fragment of Pch2; source: Tnao38 insect cells (baculovirus), purified (TALON, amylose, SEC); not shown: His, N-terminal, kept; MBP, N-terminal, kept
[1]
  binding result: binds

## B2
[2]
  binding result: binds
[3]
  stoichiometry N: 6
[4]
  binding result: binds
6xHis–Hop1
  binding result: binds
[1]
  binding result: binds
[5]
  binding result: binds

B3: Orc5 (subunit of the insect cell–purified ORC) (natural protein, budding yeast, UniProt P50874 1-479, looked up)
chain: MNVTTPEVAFREYQTNCLASYISADPDITPSNLILQGYSGTGKTYTLKKYFNANPNLHAVWLEPVELVSWKPLLQAIARTVQYKLKTLYPNIPTTDYDPLQVEEPFLLVKTLHNIFVQYESLQEKTCLFLILDGFDSLQDLDAALFNKYIKLNELLPKDSKINIKFIYTMLETSFLQRYSTHCIPTVMFPRYNVDEVSTILVMSRCGELMEDSCLRKRIIEEQITDCTDDQFQNVAANFIHLIVQAFHSYTGNDIFALNDLIDFKWPKYVSRITKENIFEPLALYKSAIKLFLSTDDNLSENGQGESAITTNRDDLENSQTYDLSIISKYLLIASYICSYLEPRYDASIFSRKTRIIQGRAAYGRRKKKEVNPRYLQPSLFAIERLLAIFQAIFPIQGKAESGSLSALREESLMKANIEVFQNLSELHTLKLIATTMNKNIDYLSPKVRWKVNVPWEIIKEISESVHFNISDYFSDIHE
notes: Orc5, budding yeast; Stood in the assays as a subunit of m16; source: Tnao38 insect cells, co-expressed, purified as part of His–ORC
His–MBP–Pch2
  binding result: binds
